{
  "source": "patent US20140271653A1",
  "assay_in_all_cases": "cell-based or functional assay",
  "key": {"[1]": {"biological_target": "RSV-F of RSV subtype B strain 1400 (respiratory syncytial virus subtype B, strain 1400)"}, "[2]": {"biological_target": "RSV-F of RSV subtype A clinical isolate A1998/12-21 (respiratory syncytial virus subtype A, clinical isolate A1998/12-21)"}, "[3]": {"biological_target": "RSV-F of RSV subtype A clinical isolate A2001/3-12 (respiratory syncytial virus subtype A, clinical isolate A2001/3-12)"}, "[4]": {"biological_target": "RSV-F of RSV subtype A clinical isolate A2000/3-4 (respiratory syncytial virus subtype A, clinical isolate A2000/3-4)"}, "[5]": {"biological_target": "RSV-F of RSV subtype B strain 9320 (respiratory syncytial virus subtype B, strain 9320)"}, "[6]": {"biological_target": "RSV-F of RSV subtype B strain 18537 (respiratory syncytial virus subtype B, strain 18537) (UniProt P13843)", "sequence (P13843 26-574)": "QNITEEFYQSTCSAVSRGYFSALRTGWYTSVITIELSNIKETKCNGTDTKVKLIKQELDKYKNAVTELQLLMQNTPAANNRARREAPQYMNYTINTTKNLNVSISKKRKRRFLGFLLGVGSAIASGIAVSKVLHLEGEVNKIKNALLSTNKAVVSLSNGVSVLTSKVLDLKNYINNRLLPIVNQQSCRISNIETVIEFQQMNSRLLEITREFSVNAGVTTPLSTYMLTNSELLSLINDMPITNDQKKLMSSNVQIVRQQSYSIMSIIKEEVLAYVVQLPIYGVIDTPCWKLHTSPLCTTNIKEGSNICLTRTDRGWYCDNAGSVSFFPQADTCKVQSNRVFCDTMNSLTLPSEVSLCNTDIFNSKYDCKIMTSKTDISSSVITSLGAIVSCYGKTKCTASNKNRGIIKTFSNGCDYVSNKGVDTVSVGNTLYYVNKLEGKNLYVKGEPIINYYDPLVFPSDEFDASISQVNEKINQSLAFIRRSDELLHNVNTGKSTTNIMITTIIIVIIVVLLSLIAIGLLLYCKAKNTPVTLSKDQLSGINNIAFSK"}, "[7]": {"biological_target": "RSV-F of RSV subtype A clinical isolate A1998/3-2 (respiratory syncytial virus subtype A, clinical isolate A1998/3-2)"}, "[8]": {"biological_target": "RSV-F of RSV subtype A strain Long (respiratory syncytial virus subtype A, strain Long) (UniProt P12568)", "sequence (P12568 26-574)": "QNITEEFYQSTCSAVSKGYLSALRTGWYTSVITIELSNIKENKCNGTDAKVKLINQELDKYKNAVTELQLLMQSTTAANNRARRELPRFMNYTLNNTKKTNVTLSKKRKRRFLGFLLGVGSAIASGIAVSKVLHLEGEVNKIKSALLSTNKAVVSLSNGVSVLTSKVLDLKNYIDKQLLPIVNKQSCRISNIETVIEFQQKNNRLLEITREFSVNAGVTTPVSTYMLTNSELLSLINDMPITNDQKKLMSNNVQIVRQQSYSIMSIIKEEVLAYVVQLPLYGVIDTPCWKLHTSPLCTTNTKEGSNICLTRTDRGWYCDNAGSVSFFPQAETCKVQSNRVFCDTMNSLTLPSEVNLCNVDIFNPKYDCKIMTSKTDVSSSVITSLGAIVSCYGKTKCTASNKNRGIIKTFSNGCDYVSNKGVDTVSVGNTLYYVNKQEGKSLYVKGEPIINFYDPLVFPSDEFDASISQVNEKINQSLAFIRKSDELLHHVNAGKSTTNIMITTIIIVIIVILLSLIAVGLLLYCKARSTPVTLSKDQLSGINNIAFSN"}, "[9]": {"biological_target": "RSV-F of RSV subtype B strain 1A2 (respiratory syncytial virus subtype B, strain 1A2)"}, "[10]": {"biological_target": "RSV-F of RSV subtype A clinical isolate A2001/2-20 (respiratory syncytial virus subtype A, clinical isolate A2001/2-20)"}, "[11]": {"biological_target": "RSV-F of RSV subtype A clinical isolate A1997/12-35 (respiratory syncytial virus subtype A, clinical isolate A1997/12-35)"}, "[12]": {"biological_target": "RSV-F of RSV subtype A strain A2 (1540) (respiratory syncytial virus subtype A, strain A2 (1540)) (UniProt P03420)", "sequence (P03420 26-574)": "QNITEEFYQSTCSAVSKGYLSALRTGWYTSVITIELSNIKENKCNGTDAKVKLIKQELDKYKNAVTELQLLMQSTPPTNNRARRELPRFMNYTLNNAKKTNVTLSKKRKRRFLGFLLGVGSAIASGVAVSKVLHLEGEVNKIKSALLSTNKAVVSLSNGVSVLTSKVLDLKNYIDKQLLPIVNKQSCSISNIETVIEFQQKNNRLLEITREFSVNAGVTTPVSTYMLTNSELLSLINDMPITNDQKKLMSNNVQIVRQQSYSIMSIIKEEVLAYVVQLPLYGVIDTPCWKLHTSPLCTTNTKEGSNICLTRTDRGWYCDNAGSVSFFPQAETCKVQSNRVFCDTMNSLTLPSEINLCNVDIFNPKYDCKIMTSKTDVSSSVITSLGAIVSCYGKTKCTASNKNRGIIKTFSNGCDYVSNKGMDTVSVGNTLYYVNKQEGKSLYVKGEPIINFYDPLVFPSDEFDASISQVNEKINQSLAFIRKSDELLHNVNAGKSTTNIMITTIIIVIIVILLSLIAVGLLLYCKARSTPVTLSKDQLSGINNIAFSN"}},
  "data": [
    {"substance": "Control III (AM-22) (antibody)", "values": [
      {"measurement": "IC50 (pM), RSV micro-neutralization, B/1400", "setting": "[1]", "value": 190, "unit": "pM"},
      {"measurement": "IC50 (pM), RSV micro-neutralization, clinical isolate", "setting": "[2]", "value": 43, "unit": "pM"},
      {"measurement": "IC50 (pM), RSV micro-neutralization, clinical isolate", "setting": "[3]", "value": 60, "unit": "pM"},
      {"measurement": "IC50 (pM), RSV micro-neutralization, clinical isolate", "setting": "[4]", "value": 55, "unit": "pM"},
      {"measurement": "IC50 (pM), RSV micro-neutralization, B/9320", "setting": "[5]", "value": 2510, "unit": "pM"},
      {"measurement": "IC50 (pM), RSV micro-neutralization, B/18537", "setting": "[6]", "value": 660, "unit": "pM"},
      {"measurement": "IC50 (pM), RSV micro-neutralization, clinical isolate", "setting": "[7]", "value": 31, "unit": "pM"},
      {"measurement": "IC50 (pM), RSV micro-neutralization, A/Long", "setting": "[8]", "value": 86, "unit": "pM"},
      {"measurement": "IC50 (pM), RSV micro-neutralization, B/1A2", "setting": "[9]", "value": 580, "unit": "pM"},
      {"measurement": "IC50 (pM), RSV micro-neutralization, clinical isolate", "setting": "[10]", "value": 72, "unit": "pM"},
      {"measurement": "IC50 (pM), RSV micro-neutralization, clinical isolate", "setting": "[11]", "value": 20, "unit": "pM"},
      {"measurement": "IC50 (pM), RSV micro-neutralization, A/A2", "setting": "[12]", "value": 91, "unit": "pM"}
    ]}
  ]
}
